Results: PMC6703689, “The heterogeneous nuclear ribonucleoprotein hnRNPM inhibits RNA virus-triggered innate immunity by antagonizing RNA sensing of RIG-I-like receptors” (PLoS Pathogens, 2019)

B1: recombinant hnRNPM (pGEX6p-1-GST-hnRNPM) (natural protein, human, UniProt P52272 1-730, looked up)
chain: MAAGVEAAAEVAATEIKMEEESGAPGVPSGNGAPGPKGEGERPAQNEKRKEKNIKRGGNRFEPYANPTKRYRAFITNIPFDVKWQSLKDLVKEKVGEVTYVELLMDAEGKSRGCAVVEFKMEESMKKAAEVLNKHSLSGRPLKVKEDPDGEHARRAMQKVMATTGGMGMGPGGPGMITIPPSILNNPNIPNEIIHALQAGRLGSTVFVANLDYKVGWKKLKEVFSMAGVVVRADILEDKDGKSRGIGTVTFEQSIEAVQAISMFNGQLLFDRPMHVKMDERALPKGDFFPPERPQQLPHGLGGIGMGLGPGGQPIDANHLNKGIGMGNIGPAGMGMEGIGFGINKMGGMEGPFGGGMENMGRFGSGMNMGRINEILSNALKRGEIIAKQGGGGGGGSVPGIERMGPGIDRLGGAGMERMGAGLGHGMDRVGSEIERMGLVMDRMGSVERMGSGIERMGPLGLDHMASSIERMGQTMERIGSGVERMGAGMGFGLERMAAPIDRVGQTIERMGSGVERMGPAIERMGLSMERMVPAGMGAGLERMGPVMDRMATGLERMGANNLERMGLERMGANSLERMGLERMGANSLERMGPAMGPALGAGIERMGLAMGGGGGASFDRAIEMERGNFGGSFAGSFGGAGGHAPGVARKACQIFVRNLPFDFTWKMLKDKFNECGHVLYADIKMENGKSKGCGVVKFESPEVAERACRMMNGMKLSGREIDVRIDRNA
notes: hnRNPM, human; cloned in pGEX-6p-1; No cleavage of GST is told; the MST methods call the same preparation GST-hnRNPM, so the tag was probably still on the protein in the pull-down; source: E. coli BL21, purified (GST resins, eluted with reduced glutathione)

Legend:
Flag-RIG-I = experiment: MST; settings: MST: PBS with 100 mM Tris-HCl pH 8.8, 20 nM Cy5-dsRNA, 25 C, GST as negative control, pull-down: HEK293 lysate, biotinylated RNA, streptavidin beads
GST-hnRNPM (human) = experiment: MST; settings: MST: PBS with 100 mM Tris-HCl pH 8.8, 20 nM Cy5-dsRNA, 25 C, GST as negative control; pull-down: HEK293 lysate, biotinylated RNA, streptavidin beads
GST-MDA5(280-1025) = experiment: MST; settings: MST: PBS with 100 mM Tris-HCl pH 8.8, 20 nM Cy5-dsRNA, 25 C, GST as negative control, pull-down: HEK293 lysate, biotinylated RNA, streptavidin beads
[1] = molecular target: T1, Flag-RIG-I, purified from transfected HEK293 cells (human, UniProt O95786 1-925); experiment: pull-down; purified recombinant proteins incubated in PBS with RNase I at 4°C for 3 hours, then immunoprecipitated with anti-MDA5 and protein G beads or with anti-Flag affinity gel at 4°C for 2 hours; immunoblots; settings: both partners purified
T1 construct: RIG-I, human; Flag-RIG-I plasmid; also called Flag-tagged RIG-I; recombinant RIG-I
T1 sequence (looked up): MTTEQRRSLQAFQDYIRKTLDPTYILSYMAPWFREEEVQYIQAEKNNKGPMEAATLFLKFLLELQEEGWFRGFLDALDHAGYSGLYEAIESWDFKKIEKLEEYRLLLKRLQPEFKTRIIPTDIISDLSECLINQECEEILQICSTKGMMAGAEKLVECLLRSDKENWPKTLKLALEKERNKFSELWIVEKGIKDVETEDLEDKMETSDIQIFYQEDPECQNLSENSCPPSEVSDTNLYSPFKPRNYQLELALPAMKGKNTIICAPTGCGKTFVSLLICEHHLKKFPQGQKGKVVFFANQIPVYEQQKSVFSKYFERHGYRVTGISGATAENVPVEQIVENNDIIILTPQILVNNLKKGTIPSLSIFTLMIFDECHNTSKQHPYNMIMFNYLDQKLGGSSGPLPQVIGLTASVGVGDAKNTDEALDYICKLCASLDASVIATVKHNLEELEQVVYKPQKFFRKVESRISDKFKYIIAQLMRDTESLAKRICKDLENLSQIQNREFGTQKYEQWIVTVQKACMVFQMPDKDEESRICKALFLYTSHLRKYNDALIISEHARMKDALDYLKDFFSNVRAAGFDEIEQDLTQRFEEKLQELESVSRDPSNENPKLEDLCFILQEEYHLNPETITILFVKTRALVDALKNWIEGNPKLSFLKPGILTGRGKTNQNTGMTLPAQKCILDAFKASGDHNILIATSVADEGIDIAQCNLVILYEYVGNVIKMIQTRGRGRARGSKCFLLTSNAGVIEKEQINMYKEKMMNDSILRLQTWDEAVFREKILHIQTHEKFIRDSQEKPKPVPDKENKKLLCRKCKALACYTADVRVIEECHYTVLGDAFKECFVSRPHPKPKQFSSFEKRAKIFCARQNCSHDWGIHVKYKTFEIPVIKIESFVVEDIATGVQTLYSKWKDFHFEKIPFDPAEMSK

[2] = molecular target: T2, recombinant MDA5 (280-1,025) (pGEX6p-1-GST-MDA5 (280-1025)) (human, UniProt Q9BYX4 280-1025); experiment: as above; settings: both partners purified
T2 construct: MDA5, human, residues 280-1025; cloned in pGEX-6p-1; No cleavage of GST is told; the MST methods call the same preparation GST-MDA5; source: E. coli BL21, purified (GST resins, eluted with reduced glutathione)
T2 sequence (looked up): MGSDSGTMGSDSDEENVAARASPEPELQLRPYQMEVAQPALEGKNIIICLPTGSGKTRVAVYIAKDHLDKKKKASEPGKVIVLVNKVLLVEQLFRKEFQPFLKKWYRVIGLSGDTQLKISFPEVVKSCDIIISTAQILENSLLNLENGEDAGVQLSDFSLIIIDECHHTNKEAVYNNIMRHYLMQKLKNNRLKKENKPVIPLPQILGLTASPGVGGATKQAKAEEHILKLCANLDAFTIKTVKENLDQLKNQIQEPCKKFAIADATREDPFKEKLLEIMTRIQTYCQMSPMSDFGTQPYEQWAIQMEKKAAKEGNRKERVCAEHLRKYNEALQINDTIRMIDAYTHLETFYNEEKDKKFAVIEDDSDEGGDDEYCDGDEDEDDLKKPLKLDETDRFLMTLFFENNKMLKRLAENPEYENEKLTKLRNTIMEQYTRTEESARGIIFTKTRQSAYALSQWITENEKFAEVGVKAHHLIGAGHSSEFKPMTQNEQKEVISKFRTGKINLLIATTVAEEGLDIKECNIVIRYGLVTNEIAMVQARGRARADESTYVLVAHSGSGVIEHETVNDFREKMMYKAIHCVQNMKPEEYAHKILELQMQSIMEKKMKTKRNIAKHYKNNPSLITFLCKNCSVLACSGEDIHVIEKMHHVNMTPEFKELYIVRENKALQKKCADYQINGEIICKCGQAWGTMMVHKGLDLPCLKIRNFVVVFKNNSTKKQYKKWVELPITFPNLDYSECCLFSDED

Molecule | Kd (Flag-RIG-I) [nM] | binding signal (fold decrease of affinity) (Flag-RIG-I; recombinant hnRNPM present) | Kd (GST-hnRNPM (human)) [nM] | Kd (GST-MDA5(280-1025)) [nM] | binding signal (fold decrease of affinity) (GST-MDA5(280-1025); recombinant hnRNPM present) | binding result [1] | binding result [2]
25 bp dsRNA | 69 | 10 | 22.1 | 131 | 3 | – | –
B1 | – | – | – | – | – | binds | binds
